In patent publication US20260167699A1 (Chugai, published 2026):

Molecular target: T1, FcγRIIIa extracellular domain, C-terminal His tag (human, UniProt P08637 17-208)
T1 construct: extracellular domain; also called 3a
Assay: SPR, binding activity relative to GpH7-A5/GpH7-B3/GpL16-k0 (=100)

T1 sequence (P08637 other isoform, or with tags, fused parts or gaps): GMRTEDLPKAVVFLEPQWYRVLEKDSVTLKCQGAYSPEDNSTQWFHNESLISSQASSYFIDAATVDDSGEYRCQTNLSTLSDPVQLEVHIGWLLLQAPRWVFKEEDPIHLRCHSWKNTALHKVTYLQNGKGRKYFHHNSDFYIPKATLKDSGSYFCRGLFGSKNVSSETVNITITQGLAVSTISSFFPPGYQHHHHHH

B1: GpH7-A5/GpH7-B3 variant S267_09D/GpL16-k0 (antibody, human IgG1, kappa)
heavy 1: not shown
heavy 2: not shown
light: DIVMTQSPLSLPVTPGEPASISCQASESLVHSNRNTYLHWYLQKPGQSPQLLIYKVSNRFSGVPDRFSGSGSGTDFTLKISRVEAEDVGVYYCSQNTHVPPTFGQGTKVEIERTVAAPSVFIFPPSDEQLKSGTASVVCLLNNFYPREAKVQWKVDNALQSGNSQESVTEQDSKDSTYSLSSTLTLSKADYEKHKVYACEVTHQGLSSPVTKSFNRGEC
notes: He Ab; copies: 1 + 1 + 2
He/Con 3a: 179%

B2: GpH7-A5/GpH7-B3 variant Y296_07I/GpL16-k0 (antibody, human IgG1, kappa)
heavy 1: not shown
heavy 2: not shown
light: B1 light
notes: He Ab; copies: 1 + 1 + 2
He/Con 3a: 75.8%

B3: GpH7-A5/GpH7-B3 variant Y296_02A/GpL16-k0 (antibody, human IgG1, kappa)
heavy 1: not shown
heavy 2: not shown
light: B1 light
notes: He Ab; copies: 1 + 1 + 2
He/Con 3a: 66.3%

B4: GpH7-A5/GpH7-B3 variant S298_09D/GpL16-k0 (antibody, human IgG1, kappa)
heavy 1: not shown
heavy 2: not shown
light: B1 light
notes: He Ab; copies: 1 + 1 + 2
He/Con 3a: 62.7%

B5: GpH7-A5/GpH7-B3 variant S298_12R/GpL16-k0 (antibody, human IgG1, kappa)
heavy 1: not shown
heavy 2: not shown
light: B1 light
notes: He Ab; copies: 1 + 1 + 2
He/Con 3a: 52.1%

B6: GpH7-A5/GpH7-B3 variant S324_16H/GpL16-k0 (antibody, human IgG1, kappa)
heavy 1: not shown
heavy 2: not shown
light: B1 light
notes: He Ab; copies: 1 + 1 + 2
He/Con 3a: 113%

B7: GpH7-A5/GpH7-B3 variant S267_19Q/GpL16-k0 (antibody, human IgG1, kappa)
heavy 1: not shown
heavy 2: not shown
light: B1 light
notes: He Ab; copies: 1 + 1 + 2
He/Con 3a: 64.3%

B8: GpH7-A5/GpH7-B3 variant V266_07I/GpL16-k0 (antibody, human IgG1, kappa)
heavy 1: not shown
heavy 2: not shown
light: B1 light
notes: He Ab; copies: 1 + 1 + 2
He/Con 3a: 113%

B9: GpH7-A5/GpH7-B3 variant S324_09D/GpL16-k0 (antibody, human IgG1, kappa)
heavy 1: not shown
heavy 2: not shown
light: B1 light
notes: He Ab; copies: 1 + 1 + 2
He/Con 3a: 110%

B10: GpH7-A5/GpH7-B3 variant S324_06M/GpL16-k0 (antibody, human IgG1, kappa)
heavy 1: not shown
heavy 2: not shown
light: B1 light
notes: He Ab; copies: 1 + 1 + 2
He/Con 3a: 124%

B11: GpH7-A5/GpH7-B3 variant S298_01G/GpL16-k0 (antibody, human IgG1, kappa)
heavy 1: not shown
heavy 2: not shown
light: B1 light
notes: He Ab; copies: 1 + 1 + 2
He/Con 3a: 74.9%

B12: GpH7-A5/GpH7-B3 variant S298_16H/GpL16-k0 (antibody, human IgG1, kappa)
heavy 1: not shown
heavy 2: not shown
light: B1 light
notes: He Ab; copies: 1 + 1 + 2
He/Con 3a: 71.9%

B13: GpH7-A5/GpH7-B3 variant S298_07I/GpL16-k0 (antibody, human IgG1, kappa)
heavy 1: not shown
heavy 2: not shown
light: B1 light
notes: He Ab; copies: 1 + 1 + 2
He/Con 3a: 90.7%

B14: GpH7-A5/GpH7-B3 variant S298_04F/GpL16-k0 (antibody, human IgG1, kappa)
heavy 1: not shown
heavy 2: not shown
light: B1 light
notes: He Ab; copies: 1 + 1 + 2
He/Con 3a: 77.6%

B15: GpH7-A5/GpH7-B3 variant Y296_14T/GpL16-k0 (antibody, human IgG1, kappa)
heavy 1: not shown
heavy 2: not shown
light: B1 light
notes: He Ab; copies: 1 + 1 + 2
He/Con 3a: 60.7%

B16: GpH7-A5/GpH7-B3 variant S298_02A/GpL16-k0 (antibody, human IgG1, kappa)
heavy 1: not shown
heavy 2: not shown
light: B1 light
notes: He Ab; copies: 1 + 1 + 2
He/Con 3a: 151%

B17: GpH7-A5/GpH7-B3 variant S324_11K/GpL16-k0 (antibody, human IgG1, kappa)
heavy 1: not shown
heavy 2: not shown
light: B1 light
notes: He Ab; copies: 1 + 1 + 2
He/Con 3a: 90.2%

B18: GpH7-A5/GpH7-B3 variant Y296_20W/GpL16-k0 (antibody, human IgG1, kappa)
heavy 1: not shown
heavy 2: not shown
light: B1 light
notes: He Ab; copies: 1 + 1 + 2
He/Con 3a: 127%

B19: GpH7-A5/GpH7-B3 variant Y296_04F/GpL16-k0 (antibody, human IgG1, kappa)
heavy 1: not shown
heavy 2: not shown
light: B1 light
notes: He Ab; copies: 1 + 1 + 2
He/Con 3a: 79.5%

B20: GpH7-A5/GpH7-B3 variant S298_03V/GpL16-k0 (antibody, human IgG1, kappa)
heavy 1: not shown
heavy 2: not shown
light: B1 light
notes: He Ab; copies: 1 + 1 + 2
He/Con 3a: 103%

B21: GpH7-A5/GpH7-B3 variant S324_18N/GpL16-k0 (antibody, human IgG1, kappa)
heavy 1: not shown
heavy 2: not shown
light: B1 light
notes: He Ab; copies: 1 + 1 + 2
He/Con 3a: 103%

B22: GpH7-A5/GpH7-B3 variant S324_04F/GpL16-k0 (antibody, human IgG1, kappa)
heavy 1: not shown
heavy 2: not shown
light: B1 light
notes: He Ab; copies: 1 + 1 + 2
He/Con 3a: 99.3%

B23: GpH7-A5/GpH7-B3 variant Y296_03V/GpL16-k0 (antibody, human IgG1, kappa)
heavy 1: not shown
heavy 2: not shown
light: B1 light
notes: He Ab; copies: 1 + 1 + 2
He/Con 3a: 69.1%

B24: GpH7-A5/GpH7-B3 variant S324_03V/GpL16-k0 (antibody, human IgG1, kappa)
heavy 1: not shown
heavy 2: not shown
light: B1 light
notes: He Ab; copies: 1 + 1 + 2
He/Con 3a: 101%

B25: GpH7-A5/GpH7-B3 variant V266_06M/GpL16-k0 (antibody, human IgG1, kappa)
heavy 1: not shown
heavy 2: not shown
light: B1 light
notes: He Ab; copies: 1 + 1 + 2
He/Con 3a: 84.9%

B26: GpH7-A5/GpH7-B3 variant S324_15Y/GpL16-k0 (antibody, human IgG1, kappa)
heavy 1: not shown
heavy 2: not shown
light: B1 light
notes: He Ab; copies: 1 + 1 + 2
He/Con 3a: 110%

B27: GpH7-A5/GpH7-B3 variant Y296_13S/GpL16-k0 (antibody, human IgG1, kappa)
heavy 1: not shown
heavy 2: not shown
light: B1 light
notes: He Ab; copies: 1 + 1 + 2
He/Con 3a: 58.1%

B28: GpH7-A5/GpH7-B3 variant Y296_11K/GpL16-k0 (antibody, human IgG1, kappa)
heavy 1: not shown
heavy 2: not shown
light: B1 light
notes: He Ab; copies: 1 + 1 + 2
He/Con 3a: 53.3%

B29: GpH7-A5/GpH7-B3 variant S298_14T/GpL16-k0 (antibody, human IgG1, kappa)
heavy 1: not shown
heavy 2: not shown
light: B1 light
notes: He Ab; copies: 1 + 1 + 2
He/Con 3a: 106%

B30: GpH7-A5/GpH7-B3 variant Y296_01G/GpL16-k0 (antibody, human IgG1, kappa)
heavy 1: not shown
heavy 2: not shown
light: B1 light
notes: He Ab; copies: 1 + 1 + 2
He/Con 3a: 51.3%

B31: GpH7-A5/GpH7-B3 variant S324_02A/GpL16-k0 (antibody, human IgG1, kappa)
heavy 1: not shown
heavy 2: not shown
light: B1 light
notes: He Ab; copies: 1 + 1 + 2
He/Con 3a: 113%

B32: GpH7-A5/GpH7-B3 variant S298_15Y/GpL16-k0 (antibody, human IgG1, kappa)
heavy 1: not shown
heavy 2: not shown
light: B1 light
notes: He Ab; copies: 1 + 1 + 2
He/Con 3a: 80.6%

B33: GpH7-A5/GpH7-B3 variant S324_10E/GpL16-k0 (antibody, human IgG1, kappa)
heavy 1: not shown
heavy 2: not shown
light: B1 light
notes: He Ab; copies: 1 + 1 + 2
He/Con 3a: 108%

B34: GpH7-A5/GpH7-B3 variant S324_12R/GpL16-k0 (antibody, human IgG1, kappa)
heavy 1: not shown
heavy 2: not shown
light: B1 light
notes: He Ab; copies: 1 + 1 + 2
He/Con 3a: 98.1%

B35: GpH7-A5/GpH7-B3 variant S298_18N/GpL16-k0 (antibody, human IgG1, kappa)
heavy 1: not shown
heavy 2: not shown
light: B1 light
notes: He Ab; copies: 1 + 1 + 2
He/Con 3a: 51.4%

B36: GpH7-A5/GpH7-B3 variant S298_06M/GpL16-k0 (antibody, human IgG1, kappa)
heavy 1: not shown
heavy 2: not shown
light: B1 light
notes: He Ab; copies: 1 + 1 + 2
He/Con 3a: 87.2%

B37: GpH7-A5/GpH7-B3 variant Y296_18N/GpL16-k0 (antibody, human IgG1, kappa)
heavy 1: not shown
heavy 2: not shown
light: B1 light
notes: He Ab; copies: 1 + 1 + 2
He/Con 3a: 67.9%

B38: GpH7-A5/GpH7-B3 variant V266_08L/GpL16-k0 (antibody, human IgG1, kappa)
heavy 1: not shown
heavy 2: not shown
light: B1 light
notes: He Ab; copies: 1 + 1 + 2
He/Con 3a: 117%

B39: GpH7-A5/GpH7-B3 variant Y296_09D/GpL16-k0 (antibody, human IgG1, kappa)
heavy 1: not shown
heavy 2: not shown
light: B1 light
notes: He Ab; copies: 1 + 1 + 2
He/Con 3a: 89%

B40: GpH7-A5/GpH7-B3 variant S298_08L/GpL16-k0 (antibody, human IgG1, kappa)
heavy 1: not shown
heavy 2: not shown
light: B1 light
notes: He Ab; copies: 1 + 1 + 2
He/Con 3a: 69.2%

B41: GpH7-A5/GpH7-B3 variant S298_11K/GpL16-k0 (antibody, human IgG1, kappa)
heavy 1: not shown
heavy 2: not shown
light: B1 light
notes: He Ab; copies: 1 + 1 + 2
He/Con 3a: 50%

B42: GpH7-A5/GpH7-B3 variant S324_14T/GpL16-k0 (antibody, human IgG1, kappa)
heavy 1: not shown
heavy 2: not shown
light: B1 light
notes: He Ab; copies: 1 + 1 + 2
He/Con 3a: 112%

B43: GpH7-A5/GpH7-B3 variant V266_02A/GpL16-k0 (antibody, human IgG1, kappa)
heavy 1: not shown
heavy 2: not shown
light: B1 light
notes: He Ab; copies: 1 + 1 + 2
He/Con 3a: 56.8%

B44: GpH7-A5/GpH7-B3 variant S267_10E/GpL16-k0 (antibody, human IgG1, kappa)
heavy 1: not shown
heavy 2: not shown
light: B1 light
notes: He Ab; copies: 1 + 1 + 2
He/Con 3a: 90.9%

B45: GpH7-A5/GpH7-B3 variant S298_19Q/GpL16-k0 (antibody, human IgG1, kappa)
heavy 1: not shown
heavy 2: not shown
light: B1 light
notes: He Ab; copies: 1 + 1 + 2
He/Con 3a: 70.6%

B46: GpH7-A5/GpH7-B3 variant Y296_19Q/GpL16-k0 (antibody, human IgG1, kappa)
heavy 1: not shown
heavy 2: not shown
light: B1 light
notes: He Ab; copies: 1 + 1 + 2
He/Con 3a: 71.4%

B47: GpH7-A5/GpH7-B3 variant Y296_10E/GpL16-k0 (antibody, human IgG1, kappa)
heavy 1: not shown
heavy 2: not shown
light: B1 light
notes: He Ab; copies: 1 + 1 + 2
He/Con 3a: 76.8%

B48: GpH7-A5/GpH7-B3 variant S267_18N/GpL16-k0 (antibody, human IgG1, kappa)
heavy 1: not shown
heavy 2: not shown
light: B1 light
notes: He Ab; copies: 1 + 1 + 2
He/Con 3a: 52%

B49: GpH7-A5/GpH7-B3 variant S324_08L/GpL16-k0 (antibody, human IgG1, kappa)
heavy 1: not shown
heavy 2: not shown
light: B1 light
notes: He Ab; copies: 1 + 1 + 2
He/Con 3a: 95.5%

B50: GpH7-A5/GpH7-B3 variant Y296_06M/GpL16-k0 (antibody, human IgG1, kappa)
heavy 1: not shown
heavy 2: not shown
light: B1 light
notes: He Ab; copies: 1 + 1 + 2
He/Con 3a: 74.6%

B51: GpH7-A5/GpH7-B3 variant S324_07I/GpL16-k0 (antibody, human IgG1, kappa)
heavy 1: not shown
heavy 2: not shown
light: B1 light
notes: He Ab; copies: 1 + 1 + 2
He/Con 3a: 101%

B52: GpH7-A5/GpH7-B3 variant Y296_12R/GpL16-k0 (antibody, human IgG1, kappa)
heavy 1: not shown
heavy 2: not shown
light: B1 light
notes: He Ab; copies: 1 + 1 + 2
He/Con 3a: 66.5%

B53: GpH7-A5/GpH7-B3 variant Y296_08L/GpL16-k0 (antibody, human IgG1, kappa)
heavy 1: not shown
heavy 2: not shown
light: B1 light
notes: He Ab; copies: 1 + 1 + 2
He/Con 3a: 72.4%

B54: GpH7-A5/GpH7-B3 variant S324_19Q/GpL16-k0 (antibody, human IgG1, kappa)
heavy 1: not shown
heavy 2: not shown
light: B1 light
notes: He Ab; copies: 1 + 1 + 2
He/Con 3a: 96.2%

B55: GpH7-A5/GpH7-B3 variant S324_01G/GpL16-k0 (antibody, human IgG1, kappa)
heavy 1: not shown
heavy 2: not shown
light: B1 light
notes: He Ab; copies: 1 + 1 + 2
He/Con 3a: 114%

B56: GpH7-A5/GpH7-B3 variant Y296_16H/GpL16-k0 (antibody, human IgG1, kappa)
heavy 1: not shown
heavy 2: not shown
light: B1 light
notes: He Ab; copies: 1 + 1 + 2
He/Con 3a: 69.1%
